Test [1] deals with T1, mouse homolog of CCX CKR2 (mouse, UniProt P56485 1-362).
T1 construct: whole, on cells; also called mouse CCX-CKR2
In words: IHC on fixed paraffin embedded tissue sections.

A further test has as its target T2, CXCR2 (UniProt P25025 1-360, limits assumed).
T2 construct: whole, on cells
T2 sequence (looked up): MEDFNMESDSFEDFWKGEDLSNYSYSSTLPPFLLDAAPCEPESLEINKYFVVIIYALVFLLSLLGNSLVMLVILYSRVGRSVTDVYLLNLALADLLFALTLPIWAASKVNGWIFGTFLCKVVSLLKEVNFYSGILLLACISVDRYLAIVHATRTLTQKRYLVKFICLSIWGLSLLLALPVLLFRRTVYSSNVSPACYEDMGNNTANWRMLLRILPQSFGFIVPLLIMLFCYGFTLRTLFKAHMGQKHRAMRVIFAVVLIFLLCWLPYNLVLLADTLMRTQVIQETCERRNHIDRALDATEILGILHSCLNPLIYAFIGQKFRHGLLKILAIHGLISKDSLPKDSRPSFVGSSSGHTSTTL
In words: flow cytometry on transfected HEK 293 cells. (In flow cytometry, cells or beads pass a laser one at a time.)

T1 sequence (P56485 whole entry): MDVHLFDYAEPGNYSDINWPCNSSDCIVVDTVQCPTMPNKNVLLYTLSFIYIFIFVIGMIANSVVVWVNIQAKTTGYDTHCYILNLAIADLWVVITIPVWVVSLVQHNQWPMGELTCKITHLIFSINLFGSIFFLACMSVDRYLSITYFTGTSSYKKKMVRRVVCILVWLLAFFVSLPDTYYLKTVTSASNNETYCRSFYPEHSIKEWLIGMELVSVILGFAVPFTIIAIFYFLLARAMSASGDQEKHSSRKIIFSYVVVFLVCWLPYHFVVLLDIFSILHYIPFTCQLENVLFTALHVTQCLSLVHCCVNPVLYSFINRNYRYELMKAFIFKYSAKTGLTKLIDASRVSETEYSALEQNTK

B1: monoclonal antibody 11G8 (antibody, V domains shown)
VH: EVKLVESGGDLVQPGGSLKLSCATSGFTFSDYYMFWVRQTPEKRLEWVAYITNGGDRSYYSDTVTGRFIISRDNAKNTLYLQMSRLKSEDTAMYYCARQGNWAAWFVYWGQGTLVTVSA
VL: DVLMTQTPLSLPVSLGDQASISCRSSHYIVHSDGNTYLEWYLQKPGQSPKLLIYKVSNRFSGVPDRFSGSGSGTDFTLKISRVEAEDLGIYYCFQGSHVPLTFGAGTKLELKR
notes: Mouse hybridoma monoclonal antibody raised by gene gun inoculation with CCX-CKR2 cDNA
In the case of B1, the binding result in test [1] is listed as “binds”; in the test with CXCR2, “no binding”.

B2: monoclonal antibody 6E10 (antibody, V domains shown)
VH: EVKLDETGGGLVQPGRPMKLSCVASGFTFSDYWMNWVRQSPEKGLEWVGQIRNKPYNYETYYSDSVKGRFTISRDDSKSSVYLQMNNLRTEDTGIYYCTSLRYWGQGTLVTVSA
VL: DIVMTQSPSSLTVTAGEKVTMSCKSSHSLLNSGIQKNFLTWYQQKPGQPPKVLIYWAFTRESGVPERFTGSGSGTDFTLTISSVQAEDLAVYYCQSDYTYPFTFGSGTKLEIKR
notes: as for B1
Turning to B2, the binding result was “binds” in test [1] and “no binding” with CXCR2.

The values above are taken from patent US20060257410A1 (CHEMOCENTRYX, published 2006).
